This is an account of results in US20190367631A1 (Regeneron, published 2019).

Numbering of substitutions follows the chain as printed. Names may count otherwise.

The target in assay [1] is T1, monkey MSR1 extracellular domain expressed with a N-terminal hexahistidine-myc-myc tag (HMM-mfMSR1) (monkey (Macaca fascicularis)).
T1 chain: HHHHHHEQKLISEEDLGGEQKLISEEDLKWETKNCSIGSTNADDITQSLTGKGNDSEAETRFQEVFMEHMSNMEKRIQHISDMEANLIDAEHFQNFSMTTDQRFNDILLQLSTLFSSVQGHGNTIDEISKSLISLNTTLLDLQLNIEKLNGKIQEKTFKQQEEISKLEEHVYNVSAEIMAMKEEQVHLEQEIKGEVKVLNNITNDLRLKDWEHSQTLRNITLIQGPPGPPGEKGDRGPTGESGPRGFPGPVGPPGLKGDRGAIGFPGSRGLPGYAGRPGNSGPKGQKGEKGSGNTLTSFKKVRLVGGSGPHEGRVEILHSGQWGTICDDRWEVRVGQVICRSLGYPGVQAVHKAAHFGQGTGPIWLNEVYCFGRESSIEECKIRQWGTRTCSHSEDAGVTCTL
In words: SPR Biacore, 25 C, antibody captured. (In general: Surface plasmon resonance follows binding to a sensor surface in real time, without labels.)

In assay [2] the target is T2, human MSR1 extracellular domain expressed with a N-terminal nonahistidine tag (His9-hMSR1); R&D Systems, Cat … (human, UniProt P21757 77-451).
T2 construct: extracellular domain; also called His-hMSR1; 9xHis-hMSR1; not shown: N-terminal nonahistidine tag
T2 sequence (looked up): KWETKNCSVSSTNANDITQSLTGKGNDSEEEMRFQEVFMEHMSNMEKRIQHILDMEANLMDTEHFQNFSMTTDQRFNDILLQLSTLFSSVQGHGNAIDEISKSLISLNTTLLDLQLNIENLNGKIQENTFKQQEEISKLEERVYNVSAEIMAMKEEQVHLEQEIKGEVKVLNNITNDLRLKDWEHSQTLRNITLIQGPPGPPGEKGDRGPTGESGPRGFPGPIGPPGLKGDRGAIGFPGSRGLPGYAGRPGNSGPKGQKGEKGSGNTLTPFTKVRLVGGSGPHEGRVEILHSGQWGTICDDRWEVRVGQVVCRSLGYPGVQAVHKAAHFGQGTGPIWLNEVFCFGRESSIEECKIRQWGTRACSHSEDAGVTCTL
Description: SPR Biacore, 25 C, antibody captured.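 Further: rates from 1:1 fit with mass transport limitation of real-time sensorgrams, HEPES-buffered saline with EDTA and Tween-20 at pH 7.4, KD and t½ derived from the kinetic rates.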

The target of assay [3] is T3, mouse MSR1 extracellular domain expressed with a N-terminal nonahistidine tag (His9-mMSR1); R&D Systems, Cat … (mouse, UniProt P30204 79-458).
T3 construct: extracellular domain; not shown: N-terminal nonahistidine tag
T3 sequence (looked up): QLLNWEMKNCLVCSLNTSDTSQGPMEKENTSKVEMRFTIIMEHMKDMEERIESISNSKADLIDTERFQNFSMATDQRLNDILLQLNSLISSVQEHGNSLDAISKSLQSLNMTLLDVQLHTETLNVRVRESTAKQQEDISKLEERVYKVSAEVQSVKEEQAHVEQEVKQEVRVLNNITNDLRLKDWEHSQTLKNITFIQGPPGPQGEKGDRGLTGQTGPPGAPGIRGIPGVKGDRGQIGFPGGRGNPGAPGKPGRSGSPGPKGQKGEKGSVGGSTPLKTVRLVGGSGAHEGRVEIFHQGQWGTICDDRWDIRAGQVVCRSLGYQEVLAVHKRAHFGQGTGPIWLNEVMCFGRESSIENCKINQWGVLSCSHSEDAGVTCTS
In words: BLI Octet, 25 C, antibody captured.

Assay [4] addresses T1, monkey MSR1 extracellular domain …. In words: SPR Biacore, 37 C, antibody captured.
Description: (§1) Binding affinities and kinetic constants of human anti-MSR1 antibodies for different MSR1 reagents were determined by real-time surface plasmon resonance (Biacore 4000). All binding studies were performed in 10 mM HEPES, 150 mM NaCl, 3 mM EDTA, and 0.05% v/v Surfactant Tween-20, pH 7.4 (HBS-ET) running buffer at 25° C. and 37° C.
(§2) The association rate (kₐ) and dissociation rate (kd) were determined by fitting the real-time binding sensorgrams to a 1:1 binding model with mass transport limitation using Scrubber 2.0c curve-fitting software. Binding dissociation equilibrium constant (KD) and dissociative half-life (t½) were calculated from the kinetic rates as:
The target in assay [5] is T2, human MSR1 extracellular domain …. In words: SPR Biacore, 37 C, antibody captured.
Description: as §1, §2

B1: H1H27760P-N297Q (antibody, V domains shown)
VH: EVQLVESGGGLVQPGRSLRLSCAASGFTFDAYAMHWVRQAPGKGLEWVSGISWNSGSIGYADSVKGRFTISRDNAKNSLYLQMNSLREEDTALYYCAKDKILELYYYGMDVWGQGTTVTVSS
VL: not shown
notes: Human IgG1 Fc with N297Q; tied by the numerical identifier; also called H1H27760P2-N297Q; H1H27760P2
What is called Kd is a measure of binding affinity in units of concentration. The term t½ denotes how long it takes for the measured level to halve. As for B1, the Kd in assay [1] was 1.93 nM; in assay [2] it was 2 nM; in assay [5], 1.74 nM. The t½ stood at 16 min in assay [1], 13 min in assay [2], 7 min in assay [4] and 6 min in assay [5]. For the same molecule, the binding result in assay [3] is given as “no binding (tested: 50 nM)”.

B2: H1H27739P-N297Q (antibody, V domains shown)
VH: EVQLVESGGGLVQPGGSLRLSCTASGFTFSSYAMSWVRQAPGKGLEWVSAISGTGSSTYFTDSVKGRFAISRDNSKNTLYLQMNSLRAEDTAVYYCAKDGEWLSTVTLFDYWGQGTLVTVSS
VL: EIVMTQSPATLSVSPGERATLSCRASQSVSSNLAWYQQKPGQAPRLLIYGASTRATGIPARFSGSGSGTDFTLTISSLQSEDFALYYCQQYFIWPPHPTFGPGTKVDIKR
notes: Human IgG1 Fc with N297Q point mutation
One may read the koff as the rate constant with which the complex falls apart. By kon is commonly meant the rate constant with which the complex forms. On to B2, for which the Kd in assay [1] was determined as 0.41 nM; in assay [2] it was 2.74 nM; in assay [4], 0.374 nM; in assay [5] it was 3.72 nM. Moreover, the koff in assay [1] is 0.000144 s⁻¹; in assay [2] it was 0.00103 s⁻¹; in assay [4] it was 0.000842 s⁻¹; in assay [5], 0.00288 s⁻¹. The kon turned out to be 352000 M⁻¹ s⁻¹ in assay [1], 375000 M⁻¹ s⁻¹ in assay [2], 2.25e+06 M⁻¹ s⁻¹ in assay [4] and 776000 M⁻¹ s⁻¹ in assay [5]. The t½ came out at 80 min in assay [1], 11 min in assay [2], 14 min in assay [4] and 4 min in assay [5]. Also, the binding result in assay [3] is “no binding (tested: 50 nM)”.

B3: H1H27734P-N297Q (antibody, V domains shown)
VH: EVQLVESRGGLVQPGGSLRLSCAASGFTFSSYAMSWVRQAPGKGLEWVSAISGSGGSTFYADSVKGRFTISRDNSKNTVYLQMNSLRAEDTAVYYCAKALVLRFLEWLGDYWGQGTLVTVSS
VL: DIQMTQSPSTLSASVGDRVTITCRASQSISSWLAWFQQKPGKAPKLLIYKASSLESGVPSRFSGSGSGTEFTLTISSLQPDDFATYYCQQYKSYWTFGQGTKVEIKR
notes: as for B2
Regarding B3, the Kd in assay [1] is 6.88 nM; in assay [2], 2.64 nM; in assay [4], 3.37 nM; in assay [5], 1.74 nM. Moreover, the koff in assay [1] was determined as 0.00291 s⁻¹; in assay [2] it was 0.00111 s⁻¹; in assay [4], 0.0032 s⁻¹; in assay [5], 0.0019 s⁻¹. Besides, the kon in assay [1] was determined as 423000 M⁻¹ s⁻¹; in assay [2], 420000 M⁻¹ s⁻¹; in assay [4], 949000 M⁻¹ s⁻¹; in assay [5] it was 1.09e+06 M⁻¹ s⁻¹. Besides, the t½ in assay [1] worked out at 4 min; in assay [2], 10 min; in assay [4], 4 min; in assay [5], 6 min. The binding result in assay [3] is recorded as “no binding (tested: 50 nM)”.

B4: H1H27756P-N297Q (antibody, V domains shown)
VH: QVQLVESGGGVVQPGRSLRLSCAASGFTFSNYDMHWVRQAPGKGLEWMAVISYDGINKYYADSVKGRFTISRDNSKNTLYLQMNSLRAEDTAVYYCAKGTYSWYFDLWGRGTLVTVSS
VL: not shown
notes: as for B2
On to B4, for which the Kd in assay [1] came to 6.81 nM; in assay [2], 0.406 nM; in assay [4], 3.97 nM; in assay [5], 1.16 nM. For the same molecule, the t½ in assay [1] stood at 5 min; in assay [2] it was 94 min; in assay [4], 4 min; in assay [5], 15 min. For the same molecule, in assay [3], the binding result is “no binding (tested: 50 nM)”.

B5: H1H27731P-N297Q (antibody, V domains shown)
VH: QLQLQESGPGLVKPSETLSLTCTVSGGSISRISYYWGWIRQPPGKGLEWIGSIYDSGSTYYNPSLKSRVTISIDTSKNQFSLKLSSVTAADTAVYYCVRYSSSSAFAFDYWGQGTLVTVSS
VL: DIQMTQSPSSVSASVGDRVTITCRASQGISSWLAWYQQKPGKAPKLLIYAASSLQSGVPSRFSGSGSGTDFTLTISSLQPEDFATYYCQQANSFPFTFGPGTKVDIKR
notes: as for B2
For the molecule B5, in assay [1], the Kd worked out at 0.477 nM, the koff was 4.69e-05 s⁻¹, the on-rate constant (kon) is 98200 M⁻¹ s⁻¹ and the t½ turned out to be 247 min. In assay [2], the Kd turned out to be 0.174 nM, the koff was determined as 2.24e-05 s⁻¹, the kon worked out at 129000 M⁻¹ s⁻¹ and the t½ was 515 min. The binding result in assay [3] is reported as “no binding (tested: 50 nM)”. In assay [4], this molecule registered a Kd of 0.674 nM, a koff of 0.000187 s⁻¹, a kon of 278000 M⁻¹ s⁻¹ and a t½ of 62 min. In assay [5], the affinity, expressed as Kd, was 0.462 nM; the koff was 0.000132 s⁻¹; the kon stood at 286000 M⁻¹ s⁻¹; the t½ turned out to be 88 min.

B6: H1H27747P-N297Q (antibody, V domains shown)
VH: QVQLVESGGAVVQPGRSLRLSCAASGFTFSYYGMHWVRQAPGKGLEWVAVISYDGSKKYYADSVKGRFTISRDNSKNTLYLQMNSLRAEDTAVYYCAKDLTVDFYYGMDVWGQGTTVTVSS
VL: B5 VL with A51T, V58A, Y87F, F96Y, P100Q, V104L, D105E
notes: as for B2
In assay [1], B6 came in with a Kd of 3.78 nM, a koff of 0.000874 s⁻¹, a kon of 231000 M⁻¹ s⁻¹ and a t½ of 13 min. In addition, in assay [3], the binding result was “no binding (tested: 50 nM)”. For the same molecule, in assay [4], binding was characterised by a dissociation constant (Kd) of 3.47 nM, the koff amounted to 0.00228 s⁻¹, the kon worked out at 657000 M⁻¹ s⁻¹ and the t½ is 5 min. In assay [5], this molecule registered a Kd of 5.37 nM, a koff of 0.00276 s⁻¹, a kon of 513000 M⁻¹ s⁻¹ and a t½ of 4 min.

B7: H1H27729P-N297Q (antibody, V domains shown)
VH: QVQLVESGGGLVKPGGSLRLSCAASGFIFSDYYMSWIRQAPGKGLEWVSYISSSGTTIYGDSVKGRFTMSRDNAKNSLYLQMNSLRAEDTAVYYCARNYALFDYWGQGTLVTVSS
VL: DIQMTQSPSSLSASVGDRVTITCQASQDISKYLNWYQQKPGKAPKLLIYYTSNLETGVPSRFSGSGSGTDFTFTISSLQPEDIATYYCHQSDYLPFTFGPGTKVDIKR
notes: as for B2
With B7, in assay [1], the Kd worked out at 7.9 nM, the koff was determined as 0.00212 s⁻¹, the kon came to 269000 M⁻¹ s⁻¹ and the t½ was 5 min. In assay [2], this molecule yielded a Kd of 5.45 nM, a koff of 0.00107 s⁻¹, a kon of 197000 M⁻¹ s⁻¹ and a t½ of 11 min. The binding result in assay [3] is given as “no binding (tested: 50 nM)”. In assay [4], this molecule showed a Kd of 8.58 nM, a koff of 0.00349 s⁻¹, a kon of 407000 M⁻¹ s⁻¹ and a t½ of 3.3 min. Besides, in assay [5], the Kd is 8.53 nM, the off-rate (koff) stood at 0.00204 s⁻¹, the kon is 239000 M⁻¹ s⁻¹ and the t½ was determined as 6 min.

B8: H1H27751P-N297Q (antibody, V domains shown)
VH: EVQLVESGGGLVQPGGSLRLSCAASGFTFSNYAMHWVRQAPGKGLEYVSAISSNGGSTYYADSVKGRITISRDNSKNTLYLQMGSLRAEDMAVYYCARGRPYYYYFGMDVWGQGTTVTVSS
VL: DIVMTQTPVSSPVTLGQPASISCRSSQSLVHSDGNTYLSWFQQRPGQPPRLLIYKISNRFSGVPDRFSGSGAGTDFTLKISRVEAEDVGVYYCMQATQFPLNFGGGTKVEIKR
notes: as for B2
Turning to B8, in assay [1], the dissociation constant (Kd) worked out at 1.01 nM, the koff was determined as 0.000749 s⁻¹, the kon was found to be 744000 M⁻¹ s⁻¹ and the t½ is 15 min. In assay [2], this molecule showed a Kd of 0.172 nM, a koff of 0.000305 s⁻¹, a kon of 1.78e+06 M⁻¹ s⁻¹ and a t½ of 38 min. Besides, the binding result in assay [3] is recorded as “no binding (tested: 50 nM)”. For the same molecule, in assay [4], binding was put at a Kd of 1.55 nM, the koff was determined as 0.0018 s⁻¹, the kon amounted to 1.17e+06 M⁻¹ s⁻¹ and the t½ came to 6 min.
